Assay results taken from patent US20090202520A1.

Target: serum amyloid P (SAP) (human), P02743
Experiment: SPR (Biacore X100), SAP on CM5 chip, soluble receptor flowed, single cycle kinetics, KD = Kd/Ka
Settings: remark: other sources report otherwise

Sequence of serum amyloid P (SAP) (human), P02743 (P02743 20-223): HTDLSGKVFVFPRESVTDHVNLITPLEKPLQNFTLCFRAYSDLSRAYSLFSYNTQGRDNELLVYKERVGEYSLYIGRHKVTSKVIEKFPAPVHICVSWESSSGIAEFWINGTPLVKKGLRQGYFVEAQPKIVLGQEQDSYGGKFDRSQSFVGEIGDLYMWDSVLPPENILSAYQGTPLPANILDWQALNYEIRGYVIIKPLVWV

Kd: 0.4 nM
B1: soluble recombinant FcγRIIIB (sFcγRIIIB), O75015 17-200 (receptor, UniProt O75015 17-200, looked up, not shown: small tags and cut ends)
chain: GMRTEDLPKAVVFLEPQWYSVLEKDSVTLKCQGAYSPEDNSTQWFHNENLISSQASSYFIDAATVNDSGEYRCQTNLSTLSDPVQLEVHIGWLLLQAPRWVFKEEDPIHLRCHSWKNTALHKVTYLQNGKDRKYFHHNSDFHIPKATLKDSGSYFCRGLVGSKNVSSETVNITITQGLAVSTIS
